The results in this text go back to patent publication US20240417485A1 (UNIVERSITY OF PITTSBURGH OF THE COMMONWEALTH SYSTEM OF …, published 2024).

As a reminder, the Kd is a measure of binding affinity in units of concentration. One may read the koff as a measure of how fast the partners let go of each other. Broadly, the kon is the second-order rate constant of association. Broadly, the EC50 is the concentration at which the effect is half-maximal.

The target in one test is T1, recombinant uPAR-Biotin (human, UniProt Q03405 23-303, limits assumed, biotin, site not stated).
T1 construct: also called human uPAR (BLItz)
The test can be described thus: BLItz, uPAR-Biotin on streptavidin biosensor.

Another test addresses human CD3 protein (human). The test can be described thus: ELISA, human CD3 protein coated, anti-human IgG1 Fc-HRP detection.
In test [1] the target is T2, Human uPAR-His recombinant protein (human, UniProt Q03405 23-303).
T2 construct: Bought protein; also called recombinant human uPAR; recombinant human uPAR protein; not shown: His tag
The test can be described thus: ELISA, recombinant human uPAR coated, anti-human IgG1 Fc-HRP detection. A general note: In an ELISA, binding on a coated surface is turned into a signal by an enzyme label.

The target of test [2] is T2, Human uPAR-His recombinant protein. The test can be described thus: ELISA, uPAR-His coated, anti-FLAG-HRP detection.
Description: (§1) ELISA: The binding and specificity of VH, VH-Fc, and DbTE to uPAR or CD3 were analyzed by ELISA. uPAR-His protein or CD3 protein was coated at 50 ng/well at 4° C. overnight, then blocked with 5% milk for 1 hours at 37° C. After washing 3 times by 0.05% PBST, 3-fold serially diluted VH and VH-Fc binders were incubated on the plate for 1 hour at 37° C. The binding of VH candidates was detected by anti-FLAG M2-peroxidase (HRP) antibody (Sigma-Aldrich) while VH-Fc or DbTE binding was detected by HRP conjugated goat anti-human IgG1 Fc (Sigma-Aldrich) at 1:1000 dilution. The plates were washed 3 times by 0.05% PBST between each reagent's incubation. Binding activity was detected using 3,3′,5,5′-tetramethylbenzidine (Sigma-Aldrich) and was stopped by TMB stop buffer (ScyTek Laboratories). Absorbance was read at 450 nm.

Description for human CD3 protein: as §1
Description for recombinant uPAR-Biotin: BLItz: DPBS was used to establish a baseline for 30 s. […] Dissociation was monitored in DPBS for 4 min.

B1: DbTE 115 (bispecific antibody, human IgG1)
chain: EVQLVESGGGLVQPGGSLRLSCKGSGFTFGDYAIGWVRQAPGQRLEWIGWINTNSGSPKYAQGFTGRFTISRDNSKNTLYLQMNSLRAEDTAVYYCATDVVVPWGQGSQVTVSSGSGSSGSGSSGSGSSQVQLVQSGGGVVQPGRSLRLSCKASGYTFTRYTMHWVRQAPGKGLEWIGYINPSRGYTNYNQKVKDRFTISRDNSKNTAFLQMDSLRPEDTGVYFCARYYDDHYCLDYWGQGTPVTVSSGGGGSGGGGSGGGGSGGGGSGGGGSGGGGSDIQMTQSPSSLSASVGDRVTITCSASSSVSYMNWYQQTPGKAPKRWIYDTSKLASGVPSRFSGSGSGTDYTFTISSLQPEDIATYYCQQWSSNPFTFGQGTKLQITRGSGSSGDKTHTCPPCPAPEAAGGPSVFLFPPKPKDTLMISRTPEVTCVVVDVSHEDPEVKFNWYVDGVEVHNAKTKPREEQYNSTYRVVSVLTVLHQDWLNGKEYKCKVSNKALGAPIEKTISKAKGQPREPQVYTLPPSRDELTKNQVSLTCLVKGFYPSDIAVEWESNGQPENNYKTTPPVLDSDGSFFLYSKLTVDKSRWQQGNVFSCSVMHEALHNHYTQKSLSLSPGKGSHHHHHH
With B1, in the test with recombinant uPAR-Biotin, the dissociation constant Kd worked out at 1.2 nM, the koff stood at 4.2e-05 s⁻¹ and the association rate constant (kon) stood at 36000 M⁻¹ s⁻¹. In the test with human CD3 protein, this molecule displayed a half-maximal effective concentration (EC50) of 8.7 nM. Further, the EC50 in test [1] stood at 28 nM.

B2: DbTE 3 (bispecific antibody, human IgG1)
chain: EVQLVESGGGLVQPGGSLRLSCAASGFTFSRYWMSWVRQAPGKALEWIGEINHSGSTNYNPSLKSLVTISRDNSKNTLYLQMNSLRAEDTATYYCARSLVPALSYYYYYGMDVWGQGTTVTVSSGSGSSGSGSSGSGSSQVQLVQSGGGVVQPGRSLRLSCKASGYTFTRYTMHWVRQAPGKGLEWIGYINPSRGYTNYNQKVKDRFTISRDNSKNTAFLQMDSLRPEDTGVYFCARYYDDHYCLDYWGQGTPVTVSSGGGGSGGGGSGGGGSGGGGSGGGGSGGGGSDIQMTQSPSSLSASVGDRVTITCSASSSVSYMNWYQQTPGKAPKRWIYDTSKLASGVPSRFSGSGSGTDYTFTISSLQPEDIATYYCQQWSSNPFTFGQGTKLQITRGSGSSGDKTHTCPPCPAPEAAGGPSVFLFPPKPKDTLMISRTPEVTCVVVDVSHEDPEVKFNWYVDGVEVHNAKTKPREEQYNSTYRVVSVLTVLHQDWLNGKEYKCKVSNKALGAPIEKTISKAKGQPREPQVYTLPPSRDELTKNQVSLTCLVKGFYPSDIAVEWESNGQPENNYKTTPPVLDSDGSFFLYSKLTVDKSRWQQGNVFSCSVMHEALHNHYTQKSLSLSPGKGSHHHHHH
notes: Single chain: VH 3, linker, humanized OKT3 scFv (VH-(G4S)6-VL), human IgG1 Fc with LALAPG mutations, His tag; also called anti-uPAR DbTE 3; domain-based bispecific T cell engager 3
Turning to B2, in the test with recombinant uPAR-Biotin, the Kd amounted to 6.6 nM, the koff was determined as 0.00072 s⁻¹ and the association rate constant (kon) was found to be 110000 M⁻¹ s⁻¹. The molecule further returned a concentration giving a half-maximal response (EC50) in the test with human CD3 protein of 28.8 nM. Also, in test [1], the half-maximal effective concentration (EC50) turned out to be 7.7 nM.

B3: VH 3 (VHH)
VHH: EVQLVESGGGLVQPGGSLRLSCAASGFTFSRYWMSWVRQAPGKALEWIGEINHSGSTNYNPSLKSLVTISRDNSKNTLYLQMNSLRAEDTATYYCARSLVPALSYYYYYGMDVWGQGTTVTVSS
notes: Fully human single VH domain from a phage library, expressed in E. coli; It was purified on Ni-NTA and detected with anti-FLAG, so a His tag and a FLAG tag are implied; also called clone 3; anti-uPAR VH 3
Take B3: in the test with recombinant uPAR-Biotin, the Kd was determined as 17.1 nM, the koff was determined as 0.0014 s⁻¹ and the kon turned out to be 79000 M⁻¹ s⁻¹. In test [2], the concentration for a half-maximal effect (EC50) stood at 12.1 nM.

B4: VH 115 (VHH)
VHH: EVQLVESGGGLVQPGGSLRLSCKGSGFTFGDYAIGWVRQAPGQRLEWIGWINTNSGSPKYAQGFTGRFTISRDNSKNTLYLQMNSLRAEDTAVYYCATDVVVPWGQGSQVTVSS
notes: Fully human single VH domain from a phage library, expressed in E. coli; It was purified on Ni-NTA and detected with anti-FLAG, so a His tag and a FLAG tag are implied
Turning to B4, in the test with recombinant uPAR-Biotin, the dissociation constant Kd was 1.7 nM, the koff was determined as 3.6e-05 s⁻¹ and the kon was 21000 M⁻¹ s⁻¹. Also, the EC50 in test [2] is 34.2 nM.
